Data on one substance can be found in article PMC12800137.

The target of this test is E4F1 (UniProt Q66K89). The test is described as follows: co-IP, immunoblot. The conditions noted are these: reference: PA28γ wild type; sites T23. (Immunoblotting shows a protein as a band on a membrane.)

In the case of PA28γ (from UniProt P61289) T23A, the “binding against the reference” value is “weaker”.
